Measurements taken from US20240277762A1 (published 2024).

Assays:
[1] = target: T1, PRAME peptide on HLA-A*02:01 (human); assay: killing
T1 peptide: SLLQHLIGL

[2] = target: T2, PRAME peptide on HLA-A*02:02 (human); assay: cytokine release
T2 peptide: SLLQHLIGL

[3] = target: T3, PRAME peptide on HLA-A*02:04 (human); assay: cytokine release
T3 peptide: SLLQHLIGL

[4] = target: T4, PRAME peptide on HLA-A*02:09 (human); assay: cytokine release
T4 peptide: SLLQHLIGL

binding result [2]: recognises
binding result [3]: recognises
binding result [4]: recognises
B1: T23.8-2.1-027-004 (TCR, V domains shown)
Valpha: GQQLNQSPQSMFIQEGEDVSMNCTSSSIFNTWLWYKQDPGEGPVLLIALYKAGELTSNGRLTAQFGITRKDSFLNISASIPSDVGIYFCAGLADYGGSQGNLIFGKGTKLSVKP
Vbeta: DSGVTQTPKHLITATGQRVTLRCSPRSGDLSVYWYQQSLDQGLQFLIQYYNGEERAKGNILERFSAQQFPDLHSELNLSSLELGDSALYFCASSVWASGGYEQYFGPGTRLTVT
binding result [1]: recognises
